Measured values: patent publication US6277558
Ends that are not written are not given here.

Biological target: GP sera of Examples 8 to 11 (anti sera from two GP patients)
Experiment: inhibition ELISA: peptide preincubated with GP antibodies for 12 hours, then plates coated with α3 NC1 bovine monomer

percent inhibition at saturation: 60%
Binder: ISRCQVCMKKRH (also: the two cysteines blocked, group not given here) [α3 carboxy terminal peptide (12 Mer synthetic peptide of human α3(IV) NC1)]
